Ends that are not written are not given here. * marks the point of attachment. Biotin = O=C1N[C@H]2[C@H](CS[C@H]2CCCCC(=O)*)N1
B1: CD3n C-terminal peptide AA4L, biotinylated (peptide)
peptide: Biotin-SVFSIPTLWSPWPPSSSSQL
notes: also called CD3η; CD3-eta
B2: CD46 (Form 1) C-terminal peptide AA10L, biotinylated (peptide)
peptide: Biotin-KKGTYLTDETHREVKFTSL
B3: FceRIb C-terminal peptide AA25L, biotinylated (peptide)
peptide: Biotin-YSATYSELEDPGEMSPPIDL
notes: also called FceRlb; FcεRβI
B4: CD83 C-terminal peptide AA47L, biotinylated (peptide)
peptide: Biotin-VTSPNKHLGLVTPHKTELV
B5: CD166 C-terminal peptide AA20L, biotinylated (peptide)
peptide: Biotin-DLGNMEENKKLEENNHKTEA
notes: also called CD166 (CD6L)
B6: DOCK2 C-terminal peptide AA40L, biotinylated (peptide)
peptide: Biotin-LASKSAEEGKQIPDSLSTDL

These binders were tested against T1, SP short PDZ-GST fusion protein (Homo sapiens (Human), UniProt O43464 350-435) (assay: A/G assays).
T1 construct: The label SP short is not explained in the excerpts
T1 sequence: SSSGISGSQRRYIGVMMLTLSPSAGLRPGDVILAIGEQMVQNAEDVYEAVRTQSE

Binding result, no binding:
B1, B2, B3, B4, B5, B6

What follows are binders tested against T2, NOS1 PDZ-GST fusion protein (Homo sapiens (Human), UniProt P29475 11-100) (assay: A/G assays).
T2 construct: Order of GST and PDZ part and limits not seen in the excerpts
T2 sequence (P29475 11-100 limits assumed): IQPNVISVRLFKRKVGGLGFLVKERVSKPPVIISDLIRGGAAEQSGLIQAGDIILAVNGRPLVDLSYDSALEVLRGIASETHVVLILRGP

Binding result, no binding:
B1, B2, B3, B4, B5, B6

Target: T3, GST-TAX-IP2 PDZ domain fusion protein (human, UniProt O14908 129-216)
T3 construct: also called TAX-1P2; TAX2; not shown: glutathione S-transferase encoded by vector pGEX-3X (Pharmacia)
T3 chain: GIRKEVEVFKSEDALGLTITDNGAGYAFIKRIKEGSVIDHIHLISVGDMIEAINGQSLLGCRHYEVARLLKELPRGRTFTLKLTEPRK
Experiment: A/G assays

Binding result, no binding:
B1, B2, B3, B4, B5, B6

What follows are binders tested against T4, GST-PTN-4 PDZ domain fusion protein (Homo sapiens (Human), UniProt P29074 517-605) (assay: A/G assays).
T4 construct: also called protein-tyrosine phosphatase meg1; not shown: glutathione S-transferase encoded by vector pGEX-3X (Pharmacia)
T4 sequence: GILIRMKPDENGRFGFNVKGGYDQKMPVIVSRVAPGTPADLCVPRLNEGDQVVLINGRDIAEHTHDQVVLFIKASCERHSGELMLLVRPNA

Binding result, no binding:
B1, B2, B3, B4, B5, B6

Target: T5, GST-mouse syntenin fusion protein (Mus musculus, UniProt O08992 108-286)
T5 construct: also called Mus musculus Syntenin; not shown: glutathione S-transferase encoded by vector pGEX-3X (Pharmacia)
T5 chain: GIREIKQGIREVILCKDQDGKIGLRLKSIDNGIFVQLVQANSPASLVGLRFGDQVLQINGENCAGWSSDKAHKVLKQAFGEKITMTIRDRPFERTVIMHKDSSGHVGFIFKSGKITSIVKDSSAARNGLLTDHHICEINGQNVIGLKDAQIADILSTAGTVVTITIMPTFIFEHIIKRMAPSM
Experiment: A/G assays

Binding result, no binding:
B1, B2, B3, B4, B5, B6

The binders below were run against T6, GST-TIAM1 PDZ domain fusion protein (Homo sapiens (Human), UniProt Q13009 845-931) (assay: A/G assays).
T6 construct: also called TLAM1; T-lymphoma invasion and metastasis inducing protein 1; not shown: glutathione S-transferase encoded by vector pGEX-3X (Pharmacia)
T6 sequence (Q13009 other isoform, or with tags, fused parts or gaps): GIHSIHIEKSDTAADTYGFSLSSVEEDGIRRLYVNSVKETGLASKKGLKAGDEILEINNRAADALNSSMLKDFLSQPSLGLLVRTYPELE

Binding result, no binding:
B1, B2, B3, B4, B5, B6

What follows are binders tested against T7, TAX-IP33 PDZ-GST fusion protein (Homo sapiens (Human), UniProt O14910 103-193) (assay: A/G assays).
T7 construct: Order of GST and PDZ part and limits not seen in the excerpts
T7 sequence: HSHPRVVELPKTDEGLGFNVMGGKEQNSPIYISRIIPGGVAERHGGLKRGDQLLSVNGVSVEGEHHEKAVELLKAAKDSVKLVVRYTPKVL

Binding result, no binding:
B1, B2, B3, B4, B5, B6

The binders below were run against T8, GST-TAX-IP43 PDZ domain fusion protein (human, UniProt Q13884 109-180) (assay: A/G assays).
T8 construct: also called TAX43; not shown: glutathione S-transferase encoded by vector pGEX-3X (Pharmacia)
T8 sequence: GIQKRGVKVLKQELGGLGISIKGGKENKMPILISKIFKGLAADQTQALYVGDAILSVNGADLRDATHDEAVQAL

Binding result, no binding:
B1, B2, B3, B4, B5, B6

Each binder was assayed against T9, GST-PDZK1 fusion protein (PDZ domains 2-4) (Homo sapiens, UniProt Q5T2W1 134-457) (assay: A/G assays).
T9 construct: not shown: glutathione S-transferase encoded by vector pGEX-3X (Pharmacia)
T9 sequence: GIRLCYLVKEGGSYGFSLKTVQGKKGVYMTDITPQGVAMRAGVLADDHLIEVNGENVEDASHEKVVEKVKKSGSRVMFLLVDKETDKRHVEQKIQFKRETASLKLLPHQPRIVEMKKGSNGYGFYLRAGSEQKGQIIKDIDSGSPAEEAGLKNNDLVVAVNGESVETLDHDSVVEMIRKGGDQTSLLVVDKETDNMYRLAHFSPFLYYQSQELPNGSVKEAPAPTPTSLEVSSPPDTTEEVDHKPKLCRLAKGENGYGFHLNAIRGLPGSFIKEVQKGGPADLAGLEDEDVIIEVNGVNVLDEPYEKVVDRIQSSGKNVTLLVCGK

Binding result, no binding:
B1, B2, B3, B4, B5, B6

What follows are binders tested against T10, GST-MPP1 PDZ domain fusion protein (Homo sapiens (Human), UniProt Q00013 67-152) (assay: A/G assays).
T10 construct: also called p55; 55 Kd erythrocyte membrane protein; not shown: glutathione S-transferase encoded by vector pGEX-3X (Pharmacia)
T10 sequence: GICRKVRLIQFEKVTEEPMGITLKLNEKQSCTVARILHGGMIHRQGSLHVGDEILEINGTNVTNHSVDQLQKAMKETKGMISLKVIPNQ

Binding result, no binding:
B1, B2, B3, B4, B5, B6

What follows are binders tested against T11, GST-DVL1 PDZ domain fusion protein (human, UniProt O14640 247-339) (assay: A/G assays).
T11 construct: also called human dishevelled segment polarity protein homolog; not shown: glutathione S-transferase encoded by vector pGEX-3X (Pharmacia)
T11 sequence: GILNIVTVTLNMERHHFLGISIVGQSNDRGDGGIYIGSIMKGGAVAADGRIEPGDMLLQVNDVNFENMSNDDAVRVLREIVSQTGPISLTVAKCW

Binding result, no binding:
B1, B2, B3, B4, B5, B6

Each binder was assayed against T12, GST-prIL16 fusion protein (PDZ domains 1-2) (Homo sapiens (Human), UniProt Q14005 1111-1324) (assay: A/G assays).
T12 construct: also called putative interleukin 16 precursor; not shown: glutathione S-transferase encoded by vector pGEX-3X (Pharmacia)
T12 sequence: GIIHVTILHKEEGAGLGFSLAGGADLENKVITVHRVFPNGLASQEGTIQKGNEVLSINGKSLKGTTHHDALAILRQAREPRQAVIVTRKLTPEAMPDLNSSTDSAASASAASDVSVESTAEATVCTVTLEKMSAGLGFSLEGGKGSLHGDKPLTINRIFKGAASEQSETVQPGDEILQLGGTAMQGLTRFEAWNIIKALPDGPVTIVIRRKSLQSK

Binding result, no binding:
B1, B2, B3, B4, B5, B6

The binders below were run against T13, K559 PDZ-GST fusion protein (Homo sapiens (Human), UniProt Q9Y6V0 4489-4593) (assay: A/G assays).
T13 construct: Order of GST and PDZ part and limits not seen in the excerpts
T13 sequence: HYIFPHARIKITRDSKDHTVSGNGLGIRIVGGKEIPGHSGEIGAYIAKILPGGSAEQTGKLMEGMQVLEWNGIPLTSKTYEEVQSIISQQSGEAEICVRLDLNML

Binding result, no binding:
B1, B2, B3, B4, B5, B6

What follows are binders tested against T14, PICK1 PDZ-GST fusion protein (Bos taurus (Bovine), UniProt Q2T9M1 17-105) (assay: A/G assays).
T14 construct: Order of GST and PDZ part and limits not seen in the excerpts
T14 sequence (Q2T9M1 other isoform, or with tags, fused parts or gaps limits assumed): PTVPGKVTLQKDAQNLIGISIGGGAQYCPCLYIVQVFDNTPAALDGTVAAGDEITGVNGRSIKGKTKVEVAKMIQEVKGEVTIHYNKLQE

Binding result, no binding:
B1, B2, B3, B4, B5, B6

The binders below were run against T15, K316 PDZ-GST fusion protein (Homo sapiens (Human), UniProt Q14CM0 72-159) (assay: A/G assays).
T15 construct: Order of GST and PDZ part and limits not seen in the excerpts
T15 sequence (Q14CM0 72-159 limits assumed): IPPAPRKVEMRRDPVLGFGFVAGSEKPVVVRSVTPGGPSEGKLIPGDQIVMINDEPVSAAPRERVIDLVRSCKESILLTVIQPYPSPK

Binding result, no binding:
B1, B2, B3, B4, B5, B6
